{"source": "paper PMC11147780", "about": "“Vaccination induces broadly neutralizing antibody precursors to HIV gp41” (Nature Immunology, 2024)", "binders": {"B1": {"name": "NHP-Comp_MPER-GT10v55_W26-10 (antibody, V domains shown)", "VH": "EVQLVESGGGLAKPGGSLRLSCVASGFRFSNYWMNWVRQTPGKGLEWISVINSGGVITYYADSVKGRFTISRDNSKNTLSLQMNSLRTEDTAVYYCARQSLDWGLDSWGQGVVVTVSS", "VL": "SSELTQDPAVSVALGQTVRITCQGDSLRNHYASWYQQKPGQAPVLVVYGNNNRPSGIPERFSGSRSGNTASLTITGAQVEDEADYYCDSWDSSGTHRVFGGGTRLTV"}, "B2": {"name": "MPER-071 (antibody, V domains shown)", "VH": "QVQLVQSGAEVKKPGASVKVSCKASGYTFTSYDINWVRQATGQGLEWMGWMNPNSGNTGYAQKFQGRVTMTRNTSISTAYMELSSLRSEDTAVYYCARGITYYDFWSGYYPTPYYFDYWGQGTLVTVSS", "VL": "not shown"}, "B3": {"name": "NHP-Comp_MPER-GT10v55_W26-02 (antibody, V domains shown)", "VH": "QLQLQESGPGLVKPSETLSVTCAVSGGSISGGYGWSWIRQPPGKGLEWIGHIFDSFGNTYYNPSLKSRVTISTDTSKNQFSLKLSSVTAADTAVYYCARETVLGAGDYFDSWGQGVLVTVSS", "VL": "DIQMTQSPSSLSASVGDTVTITCRASQDINNYLAWYQQKPGKAPKPLIYHASYLESGVPSRFSGSGSGTDFTLTISSLQPEDFAIYYCQQHNAYPFTFGPGTKLDIK"}, "B4": {"name": "NHP-Comp_MPER-GT10v55_W26-11 (antibody, V domains shown)", "VH": "EVQLVESGGGLAKPGGSLRLSCAASGFTFSNYWMCWVRQAPGKGLEWISVINSVTSGTYYADSVKGRFTISRENAKNTLYLQMDRLRVEDTAVYYCAWGLGLTAPPVYWGQGVLVTVSS", "VL": "ETVVTQEPSLSVSPGGTVTLTCGLSSGSVSTSNYPSWYQQTPGQAPRTLVYRTNIRPSGVPDRFSGSILGNKAALTITGAQADDESDFYCLFYMGSGIWVFGGGTRLTV"}, "B5": {"name": "MPER-070 (antibody, V domains shown)", "VH": "QVQLQESGPGLVKPSETLSLTCTVSGGSISSSSYYWGWIRQPPGKGLEWIGSIYYSGSTYYNPSLKSRVTISVDTSKNQFSLKLSSVTAADTAVYYCARHHPHAYDFWSGYYSERYYFDYWGQGTLVTVSS", "VL": "not shown"}, "B6": {"name": "MPER-053 (antibody, V domains shown)", "VH": "EVQLVESGGGLVQPGRSLRLSCTASGFTFGDYAMSWFRQAPGKGLEWVGFIRSKAYGGTTEYAASVKGRFTISRDDSKSIAYLQMNSLKTEDTAVYYCTREGAYYDFWSGYLTKVYGMDVWGQGTTVTVSS", "VL": "not shown"}, "B7": {"name": "NHP-Comp_MPER-GT10v55_W21-04 (antibody, V domains shown)", "VH": "DVQLVESGGGLVKPGGSLRLSCVASDFTFSSYEMHWVRQAPGKGLEWVSLISESGDTTYYADSVKGRFTISRDNAKNSLFLQMNSLRAEDTAVYYCTRAITVFGVVITHFDYWGQGVLVPVSS", "VL": "QSALTQPPSVSKSLGQSVTISCTGTSSDIGGYYAVSWYQQHSGTAPRLLIYEVSKRPSGVSDRFSGSKSGNTASLTISGLQAEDEADYYCGSFRTGYTYIFGAGTRLTV"}, "B8": {"name": "NHP-Comp_MPER-GT10v55_W21-01 (antibody, V domains shown)", "VH": "QVQLQESGPGLVKPSETLSLTCAVSGGSFSSYWWGWIRQPPGKGLEWIGSIYGSSGSTEYNPSLKSRATISRDTSKNQFSLKLSSVTAADTAVYYCARVKAPEIFGVVITGYYFDYWGQGVLVTVSS", "VL": "SYELTQPLSVSVALGQMARITCGGNNIGRKYVYWYQQKPDQAPVLVIYEDSKRPSGIPERFAGSNSGNTATLTIDGAQARDEADYYCQVWDSSTAYIFGAGTRLTV"}, "B9": {"name": "NHP-Comp_MPER-GT10v55_W21-03 (antibody, V domains shown)", "VH": "QMQLQESGPGLVKPSETLPLTCAVSGASISSNFWSWIRQAPGMGLEWIGRIYGNGGSTDYNPSLKSRVTISIDTSKNQFSLKLSSVTAADTAVYFCASSFLFRFDVWGPGVLVTVSS", "VL": "QSVLTQPPSASGAPGQSVTISCSGSSSNIGGNHVYWYQQLPGTAPKLLIYYSNQRPSGVPDRFSGSKSGTSASLAITGLRSEDEADYYCAAWDDSLSSYIFGAGTRLTV"}, "B10": {"name": "MPER-055 (antibody, V domains shown)", "VH": "not shown", "VL": "DIQMTQSPSSLSASVGDRVTITCRASQGIRNDLGWYQQKPGKAPKRLIYAASSLQSGVPSRFSGSGSGTEFTLTISSLQPEDFATYYCLQHNSYPLSFGGGTKVEIK"}, "B11": {"name": "NHP-Comp_MPER-GT10v55_W21-08 (antibody, V domains shown)", "VH": "EVQLVESGGGLVQPGGSLRLSCAASGFTFSHYGLHWVRQAPGKGLEWVAVIWSDGNKKYYADSVKDRFTISRDNSKNMLYLQMNNLKLEDTAVYYCATYTYGDWGQGVLVTVSS", "VL": "SYELTQPPSVSVSPGQMARITCGGDNLGSKYVHWYQQKPPQAPVLVIYDDSERPSGIPERFSGSKSGNTATLTISGVEAGDEADYYCQVWDSSSDNWVFGGGTRLTV"}, "B12": {"name": "NHP-Comp_MPER-GT10v55_W26-08 (antibody, V domains shown)", "VH": "QVTLKESGPALVKPTQTLTLTCTFSGFSISTTGTGVGWIRQPPGKALEWLATISWNDSKYYSTSLKSRLTISKDTSKNQVVLTFTNMDPVDTATYSCARVLQPTITTTNRFDVWGPGVLVTVSS", "VL": "B11 VL with E3D, M17T, L27I, D49Y, S51T, N96H, W97N, G101S, R104K"}, "B13": {"name": "MPER-068 (antibody, V domains shown)", "VH": "QVQLQESGPGLVKPSETLSLTCTVSGGSISSYYWSWIRQPPGKGLEWIGYIYYSGSTNYNPSLKSRVTISVDTSKNQFSLKLSSVTAADTAVYYCARSPSPYYDFWSGYFQETNWFDPWGQGTLVTVSS", "VL": "not shown"}, "B14": {"name": "NHP-Comp_MPER-GT10v55_W26-06 (antibody, V domains shown)", "VH": "QVQLVQSGAEVKQPGASVKVSCLASGYTFTSYSIHWLRQAHGQRLEWMGWINTATGNPTYTQGFKERFTFSMDTSITTAYLQISSLKTEDTAVYYCARLYRDFWGGYYASSLDVWGRGVLVTVSS", "VL": "SYDLTQPPSVSVSPGQTARITCGGENIGSEPVHWYQQKPPQAPLQVIYSDSERPSGIPERFSGSKSGNTATLTISGVEAGDEADYYCQVWDISSDHPYIFGAGTRLTV"}, "B15": {"name": "NHP-Comp_MPER-GT10v55_W21-07 (antibody, V domains shown)", "VH": "EVQLVESGGGLAKPGGSLRLSCAASGFTFSSYWMNWVRQTPGKGLEWISAINSGGGSTYYADSVKGRFTISRDNSKNTLSLQMNSLRAEDTAVYYCAKGYGLDSWGQGVVVTVSS", "VL": "QAAPTQPPSVSGSPGQSVTISCTGTSSDIGYYNAVSWYQQHPGKAPKLMIYEVSKRPSGVSDRFSGSKSGNTASLTISGLQAEDEADYYCSSYAGSNTFIFGAGTRLTV"}, "B16": {"name": "MPER-063 (antibody, V domains shown)", "VH": "QVQLVQSGAEVKKPGSSVKVSCKASGGTFSSYAISWVRQAPGQGLEWMGGIIPIFGTANYAQKFQGRVTITADESTSTAYMELSSLRSEDTAVYYCARGGTHYDFWSGYSDYYYGMDVWGKGTTVTVSS", "VL": "not shown"}, "B17": {"name": "NHP-Comp_MPER-GT10v55_W21-02 (antibody, V domains shown)", "VH": "QVQLQESGPAVVKPSETLSLTCAVSGGSISSNNWWSWIRQSPGKGLEWIGGLYGSGGNTEYYPSLKSRVTISVDTSKNQFSLKLSSVTAADTAVYYCASPAPYYGRGYSFDAFDFWGQGLRVTVSS", "VL": "QSALTQPPSVSKSLGQSVTISCTGTSSDIGGYNGVSWYQQHSGTAPKLLIYDVNKRPSGVSDRFSGSKSGNTASLTISGLQAEDEADYYCCSYRGGSTYWVFGGGTRLTV"}, "B18": {"name": "NHP-Comp_MPER-GT10v55_W26-04 (antibody, V domains shown)", "VH": "QVQLQESGPGVVKPSETLSLTCAVSGDSISDSYWWSWIRQPPGKGLEWIGYIYGSSTNTNYNPSLKSRVTISKDTSKNQFSLKLSSVTAADTAVYYCARESRWLEEYPLNTFDYWGQGVLVTVSS", "VL": "DIVMTQTPLSLPVTPGEPASISCRSSQSLLDSYGYIHLHWYLQKPGQSPQLLIYLGSNRASGVPDRFSGSGSGTDFTLKISRVEAEDVGVYYCMQTLQTPRTFGQGTKVEIK"}}, "key": {"[1]": {"molecular_target": "T1, 10E8-GT10.2 epitope scaffold (designed scaffold 10E8-GT10.2 with …, N-linked glycosylation sites added (positions not given))", "T1 chain": "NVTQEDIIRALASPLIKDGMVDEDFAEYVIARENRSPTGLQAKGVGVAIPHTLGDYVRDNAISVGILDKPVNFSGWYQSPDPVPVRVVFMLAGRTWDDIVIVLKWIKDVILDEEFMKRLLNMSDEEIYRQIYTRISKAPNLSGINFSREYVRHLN"}, "[2]": {"molecular_target": "T2, 10E8-GT10.1 epitope scaffold (synthetic construct, circularly …, N-linked glycosylation sites added (positions not given))", "T2 chain": "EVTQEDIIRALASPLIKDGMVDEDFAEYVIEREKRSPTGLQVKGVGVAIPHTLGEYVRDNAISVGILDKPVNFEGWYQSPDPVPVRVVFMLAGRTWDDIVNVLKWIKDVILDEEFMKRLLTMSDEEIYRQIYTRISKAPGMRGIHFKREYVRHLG"}}, "note": "Where a chain is given by its changes, count along the chain named.", "data": [{"binder": "B1", "values": [{"measurement": "Kd", "setting": "[1]", "result": 74.6, "unit": "nM"}]}, {"binder": "B2", "values": [{"measurement": "Kd", "setting": "[2]", "result": 6400, "unit": "nM"}]}, {"binder": "B3", "values": [{"measurement": "Kd", "setting": "[1]", "result": 3.18, "unit": "nM"}]}, {"binder": "B4", "values": [{"measurement": "Kd", "setting": "[1]", "result": 12.8, "unit": "nM"}]}, {"binder": "B5", "values": [{"measurement": "Kd", "setting": "[2]", "result": 4100, "unit": "nM"}, {"measurement": "Kd", "setting": "[1]", "result": 13000, "unit": "nM"}]}, {"binder": "B6", "values": [{"measurement": "Kd", "setting": "[2]", "result": 11000, "unit": "nM"}, {"measurement": "Kd", "setting": "[1]", "result": 7900, "unit": "nM"}]}, {"binder": "B7", "values": [{"measurement": "Kd", "setting": "[1]", "result": 15.6, "unit": "nM"}]}, {"binder": "B8", "values": [{"measurement": "Kd", "setting": "[1]", "result": 2630, "unit": "nM"}]}, {"binder": "B9", "values": [{"measurement": "Kd", "setting": "[1]", "result": 10.8, "unit": "nM"}]}, {"binder": "B10", "values": [{"measurement": "Kd", "setting": "[2]", "result": 16000, "unit": "nM"}, {"measurement": "Kd", "setting": "[1]", "result": 22000, "unit": "nM"}]}, {"binder": "B11", "values": [{"measurement": "Kd", "setting": "[1]", "result": 15.1, "unit": "nM"}]}, {"binder": "B12", "values": [{"measurement": "Kd", "setting": "[1]", "result": 2.18, "unit": "nM"}]}, {"binder": "B13", "values": [{"measurement": "Kd", "setting": "[2]", "result": 700, "unit": "nM"}, {"measurement": "Kd", "setting": "[1]", "result": 2100, "unit": "nM"}]}, {"binder": "B14", "values": [{"measurement": "Kd", "setting": "[1]", "result": 0.112, "unit": "nM"}]}, {"binder": "B15", "values": [{"measurement": "Kd", "setting": "[1]", "result": 5510, "unit": "nM"}]}, {"binder": "B16", "values": [{"measurement": "Kd", "setting": "[2]", "result": 4000, "unit": "nM"}, {"measurement": "Kd", "setting": "[1]", "result": 6600, "unit": "nM"}]}, {"binder": "B17", "values": [{"measurement": "Kd", "setting": "[1]", "result": 6840, "unit": "nM"}]}, {"binder": "B18", "values": [{"measurement": "Kd", "setting": "[1]", "result": 20.8, "unit": "nM"}]}]}
